# System: Escherichia coli TOP10
# Assay: shrunken log2 fold change of peptide-encoding DNA abundance (4.5 h post-induction vs induction); higher = less antimicrobial activity (less host growth inhibition)
# Conditions: time post-induction: 4.5 h; library: site-saturation at positions 5, 18, 19, 20
# 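Note: peptides expressed intracellularly from a pBAD plasmid library in pooled LB shake-flask culture, induced with 0.3% L-arabinose, DNA abundance read by NGS, three biological replicates, DESeq2 with apeglm shrinkage.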
sequence,measurement,value
RRIRIRPPRLPRPRPRPEVFPRP,shrunken log2 fold change,-0.202
RRIRKRPPRLPRPRPRPGTDPRP,shrunken log2 fold change,-0.165
RRIRGRPPRLPRPRPRPFWSPRP,shrunken log2 fold change,0.679
RRIRERPPRLPRPRPRPVDMPRP,shrunken log2 fold change,-0.107
RRIRQRPPRLPRPRPRPDMEPRP,shrunken log2 fold change,0.104
RRIRNRPPRLPRPRPRPGDEPRP,shrunken log2 fold change,0.0115
RRIRFRPPRLPRPRPRPILIPRP,shrunken log2 fold change,-0.194
RRIRWRPPRLPRPRPRPSMWPRP,shrunken log2 fold change,0.111
RRIRPRPPRLPRPRPRPQHCPRP,shrunken log2 fold change,-0.0861
RRIRCRPPRLPRPRPRPKGAPRP,shrunken log2 fold change,0.492
RRIRFRPPRLPRPRPRPWDDPRP,shrunken log2 fold change,-0.636
RRIRMRPPRLPRPRPRPTMYPRP,shrunken log2 fold change,0.187
RRIRFRPPRLPRPRPRPWLWPRP,shrunken log2 fold change,-0.052
RRIRFRPPRLPRPRPRPDANPRP,shrunken log2 fold change,-0.138
RRIRVRPPRLPRPRPRPICEPRP,shrunken log2 fold change,0.058
RRIRQRPPRLPRPRPRPCSIPRP,shrunken log2 fold change,-0.022
RRIRKRPPRLPRPRPRPKMNPRP,shrunken log2 fold change,0.2
RRIRYRPPRLPRPRPRPIQPPRP,shrunken log2 fold change,0.00143
RRIRGRPPRLPRPRPRPPWDPRP,shrunken log2 fold change,0.832
RRIRARPPRLPRPRPRPIEIPRP,shrunken log2 fold change,0.0613
RRIRERPPRLPRPRPRPVLSPRP,shrunken log2 fold change,-0.101
RRIRSRPPRLPRPRPRPIRQPRP,shrunken log2 fold change,-0.0752
RRIRTRPPRLPRPRPRPHSWPRP,shrunken log2 fold change,-0.0571
RRIRTRPPRLPRPRPRPFLPPRP,shrunken log2 fold change,-0.279
RRIRDRPPRLPRPRPRPCAFPRP,shrunken log2 fold change,0.822
RRIRPRPPRLPRPRPRPQFWPRP,shrunken log2 fold change,0.249
RRIRFRPPRLPRPRPRPEFSPRP,shrunken log2 fold change,0.0686
RRIRSRPPRLPRPRPRPVHDPRP,shrunken log2 fold change,-0.0657
RRIRWRPPRLPRPRPRPQDLPRP,shrunken log2 fold change,0.107
RRIRMRPPRLPRPRPRPPWKPRP,shrunken log2 fold change,0.567
RRIRRRPPRLPRPRPRPLCRPRP,shrunken log2 fold change,0.224
RRIRMRPPRLPRPRPRPWCRPRP,shrunken log2 fold change,0.0521
RRIRSRPPRLPRPRPRPSLYPRP,shrunken log2 fold change,-0.432
RRIRSRPPRLPRPRPRPWPMPRP,shrunken log2 fold change,-0.111
RRIRPRPPRLPRPRPRPEDYPRP,shrunken log2 fold change,-0.0172
RRIRPRPPRLPRPRPRPCRDPRP,shrunken log2 fold change,1.11
RRIRQRPPRLPRPRPRPTYQPRP,shrunken log2 fold change,-0.109
RRIRGRPPRLPRPRPRPNFLPRP,shrunken log2 fold change,-0.0918
RRIRGRPPRLPRPRPRPKCQPRP,shrunken log2 fold change,0.581
RRIRPRPPRLPRPRPRPEVFPRP,shrunken log2 fold change,0.0976
RRIRIRPPRLPRPRPRPWGRPRP,shrunken log2 fold change,-0.239
RRIRVRPPRLPRPRPRPVKQPRP,shrunken log2 fold change,-0.0475
RRIRKRPPRLPRPRPRPYIVPRP,shrunken log2 fold change,-0.404
RRIRARPPRLPRPRPRPFDVPRP,shrunken log2 fold change,-0.0821
RRIRCRPPRLPRPRPRPCVHPRP,shrunken log2 fold change,-0.0561
RRIRNRPPRLPRPRPRPGETPRP,shrunken log2 fold change,0.0546
RRIRRRPPRLPRPRPRPQEQPRP,shrunken log2 fold change,-0.0166
RRIRTRPPRLPRPRPRPIKAPRP,shrunken log2 fold change,-0.143
RRIRVRPPRLPRPRPRPEETPRP,shrunken log2 fold change,0.00893
RRIRGRPPRLPRPRPRPNCPPRP,shrunken log2 fold change,-0.161
RRIRGRPPRLPRPRPRPTGQPRP,shrunken log2 fold change,0.793
RRIRWRPPRLPRPRPRPLPNPRP,shrunken log2 fold change,0.783
RRIRRRPPRLPRPRPRPTNRPRP,shrunken log2 fold change,0.282
RRIRWRPPRLPRPRPRPYWAPRP,shrunken log2 fold change,-0.298
RRIRERPPRLPRPRPRPWKWPRP,shrunken log2 fold change,-0.0653
RRIRDRPPRLPRPRPRPIMWPRP,shrunken log2 fold change,-0.00999
RRIRVRPPRLPRPRPRPDGTPRP,shrunken log2 fold change,-0.161
RRIRPRPPRLPRPRPRPIPWPRP,shrunken log2 fold change,0.00327
RRIRGRPPRLPRPRPRPLIKPRP,shrunken log2 fold change,0.469
RRIRYRPPRLPRPRPRPLICPRP,shrunken log2 fold change,-0.255
RRIRGRPPRLPRPRPRPRWVPRP,shrunken log2 fold change,0.289
RRIRHRPPRLPRPRPRPLFAPRP,shrunken log2 fold change,0.107
RRIRHRPPRLPRPRPRPTVWPRP,shrunken log2 fold change,0.123
RRIRKRPPRLPRPRPRPDGRPRP,shrunken log2 fold change,0.0261
RRIRHRPPRLPRPRPRPEDLPRP,shrunken log2 fold change,0.172
RRIRYRPPRLPRPRPRPMVEPRP,shrunken log2 fold change,-0.201
RRIRSRPPRLPRPRPRPPVQPRP,shrunken log2 fold change,0.319
RRIRFRPPRLPRPRPRPSVHPRP,shrunken log2 fold change,-0.233
RRIRFRPPRLPRPRPRPQYTPRP,shrunken log2 fold change,-0.616
RRIRNRPPRLPRPRPRPWDGPRP,shrunken log2 fold change,0.185
RRIRDRPPRLPRPRPRPCCCPRP,shrunken log2 fold change,0.714
RRIRARPPRLPRPRPRPIYHPRP,shrunken log2 fold change,-0.359
RRIRFRPPRLPRPRPRPTFEPRP,shrunken log2 fold change,-0.00113
RRIRYRPPRLPRPRPRPSSMPRP,shrunken log2 fold change,-0.999
RRIRERPPRLPRPRPRPPQQPRP,shrunken log2 fold change,0.00573
RRIRLRPPRLPRPRPRPIAQPRP,shrunken log2 fold change,-0.0527
RRIRIRPPRLPRPRPRPDFQPRP,shrunken log2 fold change,-0.125
RRIRQRPPRLPRPRPRPVPIPRP,shrunken log2 fold change,-0.0341
RRIRGRPPRLPRPRPRPQMCPRP,shrunken log2 fold change,0.522
RRIRMRPPRLPRPRPRPMTYPRP,shrunken log2 fold change,0.157
RRIRLRPPRLPRPRPRPIMVPRP,shrunken log2 fold change,-0.117
RRIRERPPRLPRPRPRPNAIPRP,shrunken log2 fold change,0.185
RRIRNRPPRLPRPRPRPDAKPRP,shrunken log2 fold change,0.162
RRIRYRPPRLPRPRPRPCDIPRP,shrunken log2 fold change,-0.334
RRIRIRPPRLPRPRPRPRHRPRP,shrunken log2 fold change,-0.0972
RRIRCRPPRLPRPRPRPFEQPRP,shrunken log2 fold change,-0.669
RRIRNRPPRLPRPRPRPPMHPRP,shrunken log2 fold change,0.0449
RRIRFRPPRLPRPRPRPTIYPRP,shrunken log2 fold change,-0.689
RRIRSRPPRLPRPRPRPSCQPRP,shrunken log2 fold change,-0.175
RRIRWRPPRLPRPRPRPNFEPRP,shrunken log2 fold change,0.00226
RRIRDRPPRLPRPRPRPMIHPRP,shrunken log2 fold change,0.318

# Reference: the supplement of paper PMC9112550, “Optimization of the antimicrobial peptide Bac7 by deep mutational scanning” (BMC Biology, 2022)
